Here are results for eight substances from PMC9361535.

Test in all cases: GFP-Trap pulldown, quantitative mass spectrometry (iBAQ)
One experiment addresses MSRB3. The settings on record: cytoplasmic fraction of HeLa cells; read off a plot.
A further experiment has as its target PHLDA2. The settings on record: cytoplasmic fraction of HeLa cells; read off a plot.
For another experiment, the target named is CBS. The following applies: cytoplasmic fraction of HeLa cells; read off a plot.
The target of the next experiment is SPRYD3. The following applies: cytoplasmic fraction of HeLa cells; read off a plot.
Another experiment has as its target HSPA6/7. The settings on record: cytoplasmic fraction of HeLa cells; read off a plot.
For another experiment, the target named is DNAJA1. The settings on record: cytoplasmic fraction of HeLa cells; read off a plot.
Another experiment concerns the target ASH2L (UniProt Q9UBL3). The following applies: nuclear extracts of HeLa cells; read off a plot.
The target of the next experiment is JunD (UniProt P17535). The following applies: nuclear extracts of HeLa cells, read off a plot.
For another experiment, the target named is WDR5 (UniProt P61964). The settings on record: nuclear extracts of HeLa cells; read off a plot.
A further experiment deals with RBBP5 (UniProt Q15291). The settings on record: nuclear extracts of HeLa cells; read off a plot.
The next experiment addresses KMT2A (UniProt Q03164). The settings on record: nuclear extracts of HeLa cells, read off a plot.
The next experiment deals with KMT2B (UniProt Q9UMN6). The following applies: nuclear extracts of HeLa cells; read off a plot.
Another experiment has as its target HSPA8 (UniProt P11142). The following applies: cytoplasmic fraction of HeLa cells; read off a plot.
A further experiment concerns the target HCFC2 (UniProt Q9Y5Z7). The settings on record: nuclear extracts of HeLa cells; read off a plot.
The target in another experiment is PSIP1 (UniProt O75475). The following applies: nuclear extracts of HeLa cells; read off a plot.
For a further experiment, the target named is DPY30 (UniProt Q9C005). The settings on record: nuclear extracts of HeLa cells; read off a plot.
A further experiment addresses ubiquitin (UniProt P62979). The settings on record: cytoplasmic fraction of HeLa cells; read off a plot.

Sequence of JunD (P17535 whole entry): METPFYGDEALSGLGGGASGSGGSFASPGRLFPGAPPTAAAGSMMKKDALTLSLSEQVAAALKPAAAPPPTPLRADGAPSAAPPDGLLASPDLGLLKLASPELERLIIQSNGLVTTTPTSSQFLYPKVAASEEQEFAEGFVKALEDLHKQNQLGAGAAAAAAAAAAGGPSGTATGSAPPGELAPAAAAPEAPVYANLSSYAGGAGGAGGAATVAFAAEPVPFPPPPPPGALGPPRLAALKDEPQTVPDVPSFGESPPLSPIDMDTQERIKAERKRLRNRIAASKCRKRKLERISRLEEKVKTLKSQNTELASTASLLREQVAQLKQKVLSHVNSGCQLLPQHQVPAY
Sequence of KMT2A (Q03164 whole entry): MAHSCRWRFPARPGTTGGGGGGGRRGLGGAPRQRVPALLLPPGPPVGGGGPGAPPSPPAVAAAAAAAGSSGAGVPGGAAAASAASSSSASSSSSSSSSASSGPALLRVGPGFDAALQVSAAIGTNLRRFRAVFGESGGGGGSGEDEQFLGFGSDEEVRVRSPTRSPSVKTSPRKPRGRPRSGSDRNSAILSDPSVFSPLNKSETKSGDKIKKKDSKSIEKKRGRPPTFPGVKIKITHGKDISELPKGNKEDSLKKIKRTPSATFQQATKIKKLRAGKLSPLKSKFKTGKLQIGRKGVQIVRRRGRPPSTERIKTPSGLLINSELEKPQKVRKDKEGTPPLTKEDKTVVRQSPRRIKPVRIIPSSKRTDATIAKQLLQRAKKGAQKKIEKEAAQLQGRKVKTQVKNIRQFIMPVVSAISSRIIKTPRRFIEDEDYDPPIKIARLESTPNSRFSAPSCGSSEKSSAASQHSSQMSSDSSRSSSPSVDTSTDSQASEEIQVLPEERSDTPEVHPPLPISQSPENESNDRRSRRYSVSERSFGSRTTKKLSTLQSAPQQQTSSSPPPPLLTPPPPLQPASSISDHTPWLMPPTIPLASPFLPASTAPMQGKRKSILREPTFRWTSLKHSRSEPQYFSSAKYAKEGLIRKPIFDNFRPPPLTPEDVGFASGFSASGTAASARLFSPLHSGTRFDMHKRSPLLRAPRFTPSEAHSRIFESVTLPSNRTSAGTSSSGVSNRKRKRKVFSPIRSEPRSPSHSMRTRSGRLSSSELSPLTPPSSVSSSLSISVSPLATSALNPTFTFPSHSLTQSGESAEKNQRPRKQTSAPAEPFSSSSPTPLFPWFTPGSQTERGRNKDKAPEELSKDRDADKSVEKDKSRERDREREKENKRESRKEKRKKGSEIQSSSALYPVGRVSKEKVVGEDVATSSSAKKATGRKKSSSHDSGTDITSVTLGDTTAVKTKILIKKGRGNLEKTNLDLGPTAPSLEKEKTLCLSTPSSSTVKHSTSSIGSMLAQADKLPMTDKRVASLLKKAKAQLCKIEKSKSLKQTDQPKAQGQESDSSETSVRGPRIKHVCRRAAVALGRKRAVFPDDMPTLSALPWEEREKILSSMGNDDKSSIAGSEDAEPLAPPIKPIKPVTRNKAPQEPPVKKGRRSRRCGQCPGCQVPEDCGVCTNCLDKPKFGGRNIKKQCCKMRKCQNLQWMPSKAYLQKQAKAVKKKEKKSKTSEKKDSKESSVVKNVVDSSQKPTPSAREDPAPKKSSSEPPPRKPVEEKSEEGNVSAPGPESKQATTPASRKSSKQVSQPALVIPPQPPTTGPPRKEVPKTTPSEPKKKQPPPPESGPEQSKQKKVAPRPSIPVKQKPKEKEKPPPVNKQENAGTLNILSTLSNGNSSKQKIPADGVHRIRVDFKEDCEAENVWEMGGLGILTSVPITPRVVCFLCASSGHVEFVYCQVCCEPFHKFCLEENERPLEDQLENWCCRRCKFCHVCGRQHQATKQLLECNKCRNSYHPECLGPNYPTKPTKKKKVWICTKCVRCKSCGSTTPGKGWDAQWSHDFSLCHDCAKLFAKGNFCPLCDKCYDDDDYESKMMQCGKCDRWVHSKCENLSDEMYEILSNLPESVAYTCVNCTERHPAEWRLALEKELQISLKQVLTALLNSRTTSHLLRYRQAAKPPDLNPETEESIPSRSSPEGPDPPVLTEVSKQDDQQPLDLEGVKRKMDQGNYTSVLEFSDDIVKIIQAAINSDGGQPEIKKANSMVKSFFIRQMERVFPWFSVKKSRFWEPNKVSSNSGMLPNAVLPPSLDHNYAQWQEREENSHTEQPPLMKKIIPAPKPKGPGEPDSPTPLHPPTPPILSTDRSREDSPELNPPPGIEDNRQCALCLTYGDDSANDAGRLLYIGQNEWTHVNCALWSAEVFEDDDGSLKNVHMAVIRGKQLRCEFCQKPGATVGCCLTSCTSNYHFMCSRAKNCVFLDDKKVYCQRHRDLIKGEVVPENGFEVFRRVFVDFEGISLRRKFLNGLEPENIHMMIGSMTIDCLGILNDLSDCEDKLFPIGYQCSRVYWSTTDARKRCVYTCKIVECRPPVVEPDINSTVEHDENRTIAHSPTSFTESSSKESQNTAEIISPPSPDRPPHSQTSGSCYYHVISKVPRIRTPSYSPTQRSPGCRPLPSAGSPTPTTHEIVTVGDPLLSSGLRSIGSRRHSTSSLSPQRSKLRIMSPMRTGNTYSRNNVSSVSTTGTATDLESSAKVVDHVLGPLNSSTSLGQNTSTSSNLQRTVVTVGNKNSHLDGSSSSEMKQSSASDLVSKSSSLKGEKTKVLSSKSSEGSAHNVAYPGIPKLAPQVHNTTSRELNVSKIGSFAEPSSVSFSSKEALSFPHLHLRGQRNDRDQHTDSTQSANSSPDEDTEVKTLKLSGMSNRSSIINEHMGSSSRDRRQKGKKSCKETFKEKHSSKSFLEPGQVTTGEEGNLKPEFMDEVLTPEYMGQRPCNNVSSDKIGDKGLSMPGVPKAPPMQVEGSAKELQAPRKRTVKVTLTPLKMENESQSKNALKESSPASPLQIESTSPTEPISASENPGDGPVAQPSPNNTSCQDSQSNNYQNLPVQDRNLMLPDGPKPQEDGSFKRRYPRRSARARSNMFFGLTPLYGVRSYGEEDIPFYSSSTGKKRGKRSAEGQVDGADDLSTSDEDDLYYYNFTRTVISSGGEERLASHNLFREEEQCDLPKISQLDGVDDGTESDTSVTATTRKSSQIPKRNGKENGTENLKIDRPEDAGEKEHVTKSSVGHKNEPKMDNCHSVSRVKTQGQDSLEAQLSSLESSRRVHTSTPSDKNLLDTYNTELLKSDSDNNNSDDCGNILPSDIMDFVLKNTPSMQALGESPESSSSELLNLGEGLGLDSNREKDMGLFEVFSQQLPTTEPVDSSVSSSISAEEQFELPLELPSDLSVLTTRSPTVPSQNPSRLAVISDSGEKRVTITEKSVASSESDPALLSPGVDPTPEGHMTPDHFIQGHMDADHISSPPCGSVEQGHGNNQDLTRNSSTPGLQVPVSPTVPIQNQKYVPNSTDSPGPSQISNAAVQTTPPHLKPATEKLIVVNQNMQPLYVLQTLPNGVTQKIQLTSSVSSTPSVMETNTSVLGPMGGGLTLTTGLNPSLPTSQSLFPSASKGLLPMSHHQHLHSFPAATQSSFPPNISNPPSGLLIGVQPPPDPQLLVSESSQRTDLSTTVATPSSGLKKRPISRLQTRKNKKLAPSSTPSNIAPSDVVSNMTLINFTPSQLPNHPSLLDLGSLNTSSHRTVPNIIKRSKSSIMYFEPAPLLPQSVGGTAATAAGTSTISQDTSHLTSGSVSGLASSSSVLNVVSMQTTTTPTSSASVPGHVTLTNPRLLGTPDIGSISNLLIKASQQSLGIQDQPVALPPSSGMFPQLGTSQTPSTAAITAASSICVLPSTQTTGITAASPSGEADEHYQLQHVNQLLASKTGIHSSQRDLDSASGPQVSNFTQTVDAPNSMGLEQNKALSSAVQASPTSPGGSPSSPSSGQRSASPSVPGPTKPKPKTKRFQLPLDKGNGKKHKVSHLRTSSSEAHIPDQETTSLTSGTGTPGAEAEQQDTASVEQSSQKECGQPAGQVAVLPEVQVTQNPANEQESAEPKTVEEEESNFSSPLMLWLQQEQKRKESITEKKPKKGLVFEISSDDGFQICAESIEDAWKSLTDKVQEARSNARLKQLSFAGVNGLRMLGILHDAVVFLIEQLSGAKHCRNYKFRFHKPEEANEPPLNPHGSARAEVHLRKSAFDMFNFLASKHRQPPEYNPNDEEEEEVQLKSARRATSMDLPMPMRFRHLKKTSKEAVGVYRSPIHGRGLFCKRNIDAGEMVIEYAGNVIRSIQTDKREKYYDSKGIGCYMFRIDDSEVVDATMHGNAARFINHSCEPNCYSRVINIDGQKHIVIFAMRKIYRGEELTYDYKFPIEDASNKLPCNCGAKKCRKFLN
Sequence of DPY30 (Q9C005 whole entry): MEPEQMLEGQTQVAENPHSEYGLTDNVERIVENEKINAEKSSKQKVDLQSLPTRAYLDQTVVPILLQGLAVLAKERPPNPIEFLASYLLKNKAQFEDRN
Sequence of ASH2L (Q9UBL3 whole entry): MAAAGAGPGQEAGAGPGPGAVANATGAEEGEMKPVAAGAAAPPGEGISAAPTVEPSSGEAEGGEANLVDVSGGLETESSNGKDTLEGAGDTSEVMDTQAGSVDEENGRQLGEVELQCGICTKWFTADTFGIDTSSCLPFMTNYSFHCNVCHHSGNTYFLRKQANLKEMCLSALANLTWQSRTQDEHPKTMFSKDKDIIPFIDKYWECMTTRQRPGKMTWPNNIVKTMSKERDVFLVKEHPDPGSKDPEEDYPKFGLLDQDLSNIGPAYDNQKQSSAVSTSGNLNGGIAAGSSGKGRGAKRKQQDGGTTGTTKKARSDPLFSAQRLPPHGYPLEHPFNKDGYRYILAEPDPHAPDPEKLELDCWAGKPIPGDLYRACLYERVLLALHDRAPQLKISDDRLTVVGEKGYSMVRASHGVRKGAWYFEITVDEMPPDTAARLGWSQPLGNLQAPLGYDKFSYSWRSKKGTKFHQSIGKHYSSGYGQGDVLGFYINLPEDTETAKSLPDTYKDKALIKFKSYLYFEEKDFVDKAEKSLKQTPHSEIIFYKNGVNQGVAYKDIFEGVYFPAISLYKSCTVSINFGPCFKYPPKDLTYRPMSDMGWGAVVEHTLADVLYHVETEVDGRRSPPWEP

The substance “WT menin-GFP (from UniProt O00255-2) E359K” came in with an other: stoichiometry with MSRB3 of 0.22.
As to “WT menin-GFP (from UniProt O00255-2) E366D”, the other: stoichiometry came out at 0.06 with PHLDA2 and 0.055 in the experiment with MSRB3.
For the substance “WT menin-GFP (from UniProt O00255-2) E408Q”, the other: stoichiometry in the experiment with CBS was found to be 0.055; with PHLDA2, 0.12; in the experiment with MSRB3, 0.095.
On to “WT menin-GFP (from UniProt O00255-2) L168P”, for which the other: stoichiometry stood at 0.04 with SPRYD3, 0.075 with HSPA6/7 and 0.045 in the experiment with DNAJA1.
Take “WT menin-GFP (from UniProt O00255-2) L264P”: in the experiment with HSPA6/7, the other: stoichiometry is 0.11.
As to “WT menin-GFP (from UniProt O00255-2) Q141R”, the values for the other: stoichiometry with HSPA6/7 and with MSRB3 were 0.04 and 0.055, respectively.
Turning to “WT menin-GFP (from UniProt O00255-2) R52G”, the other: stoichiometry in the experiment with PHLDA2 stood at 0.09; in the experiment with MSRB3, 0.05.
As to “WT menin-GFP (from UniProt O00255-2) R322H”, the other: stoichiometry in the experiment with ASH2L amounted to 0.06; with JunD, 0.053; with WDR5, 0.046; in the experiment with RBBP5, 0.076; in the experiment with KMT2A, 0.028; in the experiment with KMT2B, 0.068. Also, the other: stoichiometry is 0.26 with HSPA8; 0.014 in the experiment with HCFC2; 0.045 with PHLDA2; 0.014 with PSIP1; 0.23 in the experiment with DPY30; 0.045 with MSRB3. Also, in the experiment with ubiquitin, the other: stoichiometry was 0.35. The ratio to parent was 0.53 in the experiment with JunD (parent: est. 1.0) and 0.8 in the experiment with KMT2A (parent: est. 1.0).
